Reference: patent US20240026037A1 (Memorial Sloan Kettering, published 2024)
Changes are numbered by the printed parent chain. Numbers in names are those of the source.

T1: Human GPA33 (recombinant protein, Novoprotein) (human, UniProt Q99795 22-235)
T1 construct: Bought recombinant protein immobilized on a CM5 chip; also called GPA33 antigen; tumor antigen GPA33
T1 sequence: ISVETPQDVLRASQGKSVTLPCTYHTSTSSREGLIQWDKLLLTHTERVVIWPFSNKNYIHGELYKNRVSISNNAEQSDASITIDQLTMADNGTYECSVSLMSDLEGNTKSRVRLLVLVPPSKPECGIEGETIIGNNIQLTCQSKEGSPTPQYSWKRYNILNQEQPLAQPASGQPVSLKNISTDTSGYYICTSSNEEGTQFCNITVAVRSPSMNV

T2: Human GPA33 on GPA33+ colorectal cancer cell lines (Colo 205, LS 174T, SW 1222) (human, UniProt Q99795 22-319)
T2 construct: Endogenous GPA33 on human colorectal cancer cell lines; also called surface human GPA33; GPA33+ tumor cell lines
T2 sequence: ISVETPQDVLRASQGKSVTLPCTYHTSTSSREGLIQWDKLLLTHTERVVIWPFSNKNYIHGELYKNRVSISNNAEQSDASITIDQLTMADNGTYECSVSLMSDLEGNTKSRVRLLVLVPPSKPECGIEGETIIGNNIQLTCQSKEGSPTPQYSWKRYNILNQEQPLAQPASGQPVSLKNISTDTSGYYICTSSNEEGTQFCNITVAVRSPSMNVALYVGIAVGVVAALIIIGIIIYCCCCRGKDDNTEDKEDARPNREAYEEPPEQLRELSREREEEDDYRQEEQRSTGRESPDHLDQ

B1: BC015 (G3A H1L4) (bispecific antibody, human IgG1, kappa, N297A)
heavy: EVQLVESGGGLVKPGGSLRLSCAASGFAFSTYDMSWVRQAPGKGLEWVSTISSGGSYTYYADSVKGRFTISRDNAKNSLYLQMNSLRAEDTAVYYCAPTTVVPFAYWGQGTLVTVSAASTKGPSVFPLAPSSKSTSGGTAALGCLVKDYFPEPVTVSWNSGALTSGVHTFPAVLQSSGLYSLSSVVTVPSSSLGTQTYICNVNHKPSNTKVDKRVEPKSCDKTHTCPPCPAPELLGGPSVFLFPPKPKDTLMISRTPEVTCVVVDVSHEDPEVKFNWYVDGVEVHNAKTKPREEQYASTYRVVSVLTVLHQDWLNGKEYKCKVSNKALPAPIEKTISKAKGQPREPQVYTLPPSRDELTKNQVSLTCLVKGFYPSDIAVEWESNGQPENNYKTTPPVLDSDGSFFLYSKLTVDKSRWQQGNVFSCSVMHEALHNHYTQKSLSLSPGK
light: DIQMTQSPSSLSASVGDRVTITCKASQNVRTVVAWYQQKPGKAPKTLIYLASNRHTGVPSRFSGSGSGTEFTLTISNLQPEDFATYYCLQHWSYPLTFGSGTKLEVKRTVAAPSVFIFPPSDEQLKSGTASVVCLLNNFYPREAKVQWKVDNALQSGNSQEKSVTEQDSKDSTYSLSSTLTLSKADYEKHKVYACEVTHQGLSSPVTKSFNRGECTSGGGGSGGGGSGGGGSHVQLVESGGGLVQPGGSLRLSCAASGFSLTDYGVHWVRQAPGKGLEWLGVIWSGGGTAYNTALISRFTISRDNSKNTLYLQMNSLRAEDTAVYYCARRGSYPYNYFDAWGCGTLVTVSSGGGGSGGGGSGGGGSGGGGSGGGGSGGGGSQAVVTQEPSLTVSPGGTVTLTCGSSTGAVTASNYANWVQQKPGQCPRGLIGGHNNRPPGVPARFSGSLLGGKAALTLLGAQPEDEAEYYCALWYSDHWVIGGGTKLTVLG
notes: GPA33xDOTA IgG-[L]-scFv with human IgG1 constant region carrying N297A and K322A; The anti-DOTA scFv is fused to the C-terminus of the light chain; also called BC177; GPA33 BsAb-IgG (BC177)
B2: TC234 (bispecific antibody)
chain: EVQLVESGGGLVDPGGSLRLSCAASGFAFSTYDMSWVRQAPGKGLEWVSTISSGGSYTYYADSVKGRFTISRDNAKNSLYLQMNSLRAEDTAVYYCAPTTVVPFAYWGQGTLVTVSAGGGGSGGGGSGGGGSGGGGSGGGGSGGGGSDIQMTQSPSSLSASVGDRVTITCKASQNVRTVVAWYQQKPGKAPKTLIYLASNRHTGVPSRFSGSGSGTEFTLTISNLQPEDFATYYCLQHWSYPLTFGSGTKLEVKRGGGGSGGGGSGGGGSGGGGSHVQLVESGGGLVQPGGSLRLSCAASGFSLTDYGVHWVRQAPGKGLEWLGVIWSGGGTAYNTALISRFTISRDNSKNTLYLQMNSLRAEDTAVYYCARRGSYPYNYFDAWGCGTLVTVSSGGGGSGGGGSGGGGSGGGGSGGGGSGGGGSQAVVTQEPSLTVSPGGTVTLTCGSSTGAVTASNYANWVQQKPGQCPRGLIGGHNNRPPGVPARFSGSLLGGKAALTLLGAQPEDEAEYYCALWYSDHWVIGGGTKLTVLGTPLGDTTHTSGKPLDGEYFTLQIRGRERFEMFRELNEALELKDAQAGKEPGGSGGAPHHHHHH
notes: pI variant of TC170 with a single mutation; Carries the p53 SADA (tetramerization) domain; also called GPA33xDOTA SADA; pI variant of TC170
B3: TC213 (bispecific antibody)
chain: B2 chain with K76A
notes: pI variant of TC170 with a double mutation in the GPA33 scFv; Carries the p53 SADA (tetramerization) domain; also called GPA33xDOTA SADA; pI variant of TC170
B4: TC235 (bispecific antibody)
chain: B2 chain with K76A, K189Q
notes: pI variant of TC170 with a triple mutation in the GPA33 scFv; Carries the p53 SADA (tetramerization) domain; also called GPA33xDOTA SADA; pI variant of TC170

Key:
[1] = target: T1, Human GPA33 (recombinant protein, …); test: SPR (Biacore), human GPA33 immobilised on the chip; reference row
Outline: (§1)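 Affinity (KD) was measured by surface plasmon resonance on a Biacore system, with recombinant human GPA33 (Novoprotein) immobilised on a CM5 sensor chip. Antibodies were injected at five concentrations, 2-fold serial dilutions starting at 20 nM. The sensorgrams were fitted kinetically to give rate constants and KD. Each KD is given as a ratio to the KD of a reference molecule.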

[2] = target: T2, Human GPA33 on GPA33+ colorectal cancer …; test: FACS titration on LS174T cells, geometric mean MFI [Cont.]
[3] = target: T1, Human GPA33 (recombinant protein, …); test: SPR (Biacore), human GPA33 immobilized on CM5 chip, two-state fit, ka1
Description: (§2) SPR analysis. Human GPA33 (Novoprotein, Summit, NJ) was immobilized on CM5 chips. Five concentrations of 2-fold serially diluted huA33 IgG1 or huA33-BsAbs (starting at 20 nM) were flowed over the chip using a Biacore™ T100 system (GE Healthcare, Chicago, IL). Binding kinetics of huA33 were measured at 25° C. and binding kinetics of huA33-BsAbs were measured at both 25° C. and 37° C. The sensorgrams were fitted with two state binding model for both to derive kinetic parameters.

[4] = target: T2, Human GPA33 on GPA33+ colorectal cancer …; test: FACS titration on Colo205 cells, geometric mean MFI
[5] = target: T2, Human GPA33 on GPA33+ colorectal cancer …; test: FACS titration on SW1222 cells, geometric mean MFI [Cont.]
[6] = target: T1, Human GPA33 (recombinant protein, …); test: SPR (Biacore), human GPA33 immobilized on CM5 chip, two-state fit
Description: as §2

[7] = target: T1, Human GPA33 (recombinant protein, …); test: SPR (Biacore), human GPA33 immobilized on CM5 chip, two-state fit, kd1
Outline: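 Kinetic parameters, including the off-rate (kd1), were obtained by fitting surface plasmon resonance sensorgrams to a two-state binding model. On a Biacore T100 with recombinant human GPA33 immobilised on a CM5 chip, antibodies were passed over at five 2-fold serial dilutions from 20 nM. Runs used 25° C for the parent IgG1, and 25° C and 37° C for the bispecific formats.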

[8] = target: T2, Human GPA33 on GPA33+ colorectal cancer …; test: FACS binding to LS174T cells (GPA33+)
[9] = target: T2, Human GPA33 on GPA33+ colorectal cancer …; test: FACS titration on Colo205 cells, geometric mean MFI; remark: listed apart in the source
[10] = target: T2, Human GPA33 on GPA33+ colorectal cancer …; test: FACS titration on SW1222 cells, geometric mean MFI [Cont.]; remark: listed apart in the source
[11] = target: T2, Human GPA33 on GPA33+ colorectal cancer …; test: FACS titration on LS174T cells, geometric mean MFI [Cont.]; remark: listed apart in the source
[12] = target: T1, Human GPA33 (recombinant protein, …); test: SPR (Biacore), human GPA33 immobilised on the chip; KD relative to that of TC170
Outline: as §1

[13] = target: T2, Human GPA33 on GPA33+ colorectal cancer …; test: FACS binding to Colo205 cells (GPA33+)
[14] = target: T2, Human GPA33 on GPA33+ colorectal cancer …; test: FACS binding to SW1222 cells (GPA33+)

Row | Binder | Fold change of KD (relative to BC015, lower is better) [1] | EC50 [2] [nM] | kon [3] [M⁻¹ s⁻¹] | EC50 [4] [nM] | EC50 [5] [nM] | Kd [6] [nM] | ka2 [6] [s⁻¹] | kd2 [6] [s⁻¹] | koff [7] [s⁻¹] | EC50 [8] [nM] | fold change of binding EC50 (relative to TC170, lower is better) [8] | EC50 [9] [nM] | EC50 [10] [nM] | EC50 [11] [nM] | Fold change of KD (relative to TC170, lower is better) [12] | EC50 [13] [nM] | fold change of binding EC50 (relative to TC170, lower is better) [13] | EC50 [14] [nM] | fold change of binding EC50 (relative to TC170, lower is better) [14]
1 | B1 | 1 | 0.39 | 4.36e+06 | 1.04 | 0.71 | 0.118 | 0.00307 | 0.00177 | 0.00141 | – | – | – | – | – | – | – | – | – | –
2 | B2 | – | – | 4.65e+06 | – | – | 0.0122 | 0.00566 | 0.000353 | 0.000966 | 0.21 | 0.68 | 0.71 | 2.05 | 0.21 | 0.8 | 0.71 | 0.96 | 2.05 | 1.24
3 | B3 | – | – | 3.44e+06 | – | – | 0.0218 | 0.00636 | 0.000611 | 0.000857 | 0.23 | 0.74 | 0.55 | 1.05 | 0.23 | 1.4 | 0.55 | 0.74 | 1.05 | 0.64
4 | B4 | – | – | 3.38e+06 | – | – | 0.0242 | 0.00561 | 0.00051 | 0.000981 | 0.22 | 0.71 | 0.53 | 1.03 | 0.22 | 1.5 | 0.53 | 0.72 | 1.03 | 0.62
